Experimental data reported in patent US20160108416.

Tests used:
atToc159 (At4g02510) = atToc159 (At4g02510) (UniProt O81283)
atToc75-III (At3g46740) = target: T1, atToc75-III (At3g46740) (UniProt Q9STE8)
T1 sequence: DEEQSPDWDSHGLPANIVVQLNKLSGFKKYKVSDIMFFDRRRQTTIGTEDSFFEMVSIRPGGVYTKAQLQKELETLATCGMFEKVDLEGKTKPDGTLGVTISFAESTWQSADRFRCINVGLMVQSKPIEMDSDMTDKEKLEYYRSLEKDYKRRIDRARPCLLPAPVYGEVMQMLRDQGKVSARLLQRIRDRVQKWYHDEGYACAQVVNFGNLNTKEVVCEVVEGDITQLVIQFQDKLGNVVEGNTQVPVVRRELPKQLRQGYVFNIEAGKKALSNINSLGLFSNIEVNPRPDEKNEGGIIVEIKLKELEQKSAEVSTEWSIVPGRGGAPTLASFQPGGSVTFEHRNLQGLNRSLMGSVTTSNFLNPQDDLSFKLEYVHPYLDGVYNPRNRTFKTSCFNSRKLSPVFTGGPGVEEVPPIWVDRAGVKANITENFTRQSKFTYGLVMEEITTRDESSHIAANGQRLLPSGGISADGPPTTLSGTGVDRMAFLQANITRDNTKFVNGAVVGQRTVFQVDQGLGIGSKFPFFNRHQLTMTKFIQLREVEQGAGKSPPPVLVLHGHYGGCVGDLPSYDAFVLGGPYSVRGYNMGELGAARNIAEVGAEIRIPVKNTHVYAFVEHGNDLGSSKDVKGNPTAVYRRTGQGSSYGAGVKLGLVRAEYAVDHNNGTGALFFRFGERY

atToc33 (At1g02280) = target: T2, atToc33 (At1g02280) (UniProt O23680)
T2 sequence: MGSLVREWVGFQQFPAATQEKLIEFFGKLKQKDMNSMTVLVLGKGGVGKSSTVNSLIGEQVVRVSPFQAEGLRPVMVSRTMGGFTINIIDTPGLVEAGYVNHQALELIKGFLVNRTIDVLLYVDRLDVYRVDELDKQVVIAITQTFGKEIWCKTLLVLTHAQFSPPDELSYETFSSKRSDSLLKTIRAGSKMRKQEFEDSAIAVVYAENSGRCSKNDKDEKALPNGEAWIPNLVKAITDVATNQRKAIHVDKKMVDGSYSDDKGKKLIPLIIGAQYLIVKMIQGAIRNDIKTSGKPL

Chain of UniProt O81283 (O81283 whole entry): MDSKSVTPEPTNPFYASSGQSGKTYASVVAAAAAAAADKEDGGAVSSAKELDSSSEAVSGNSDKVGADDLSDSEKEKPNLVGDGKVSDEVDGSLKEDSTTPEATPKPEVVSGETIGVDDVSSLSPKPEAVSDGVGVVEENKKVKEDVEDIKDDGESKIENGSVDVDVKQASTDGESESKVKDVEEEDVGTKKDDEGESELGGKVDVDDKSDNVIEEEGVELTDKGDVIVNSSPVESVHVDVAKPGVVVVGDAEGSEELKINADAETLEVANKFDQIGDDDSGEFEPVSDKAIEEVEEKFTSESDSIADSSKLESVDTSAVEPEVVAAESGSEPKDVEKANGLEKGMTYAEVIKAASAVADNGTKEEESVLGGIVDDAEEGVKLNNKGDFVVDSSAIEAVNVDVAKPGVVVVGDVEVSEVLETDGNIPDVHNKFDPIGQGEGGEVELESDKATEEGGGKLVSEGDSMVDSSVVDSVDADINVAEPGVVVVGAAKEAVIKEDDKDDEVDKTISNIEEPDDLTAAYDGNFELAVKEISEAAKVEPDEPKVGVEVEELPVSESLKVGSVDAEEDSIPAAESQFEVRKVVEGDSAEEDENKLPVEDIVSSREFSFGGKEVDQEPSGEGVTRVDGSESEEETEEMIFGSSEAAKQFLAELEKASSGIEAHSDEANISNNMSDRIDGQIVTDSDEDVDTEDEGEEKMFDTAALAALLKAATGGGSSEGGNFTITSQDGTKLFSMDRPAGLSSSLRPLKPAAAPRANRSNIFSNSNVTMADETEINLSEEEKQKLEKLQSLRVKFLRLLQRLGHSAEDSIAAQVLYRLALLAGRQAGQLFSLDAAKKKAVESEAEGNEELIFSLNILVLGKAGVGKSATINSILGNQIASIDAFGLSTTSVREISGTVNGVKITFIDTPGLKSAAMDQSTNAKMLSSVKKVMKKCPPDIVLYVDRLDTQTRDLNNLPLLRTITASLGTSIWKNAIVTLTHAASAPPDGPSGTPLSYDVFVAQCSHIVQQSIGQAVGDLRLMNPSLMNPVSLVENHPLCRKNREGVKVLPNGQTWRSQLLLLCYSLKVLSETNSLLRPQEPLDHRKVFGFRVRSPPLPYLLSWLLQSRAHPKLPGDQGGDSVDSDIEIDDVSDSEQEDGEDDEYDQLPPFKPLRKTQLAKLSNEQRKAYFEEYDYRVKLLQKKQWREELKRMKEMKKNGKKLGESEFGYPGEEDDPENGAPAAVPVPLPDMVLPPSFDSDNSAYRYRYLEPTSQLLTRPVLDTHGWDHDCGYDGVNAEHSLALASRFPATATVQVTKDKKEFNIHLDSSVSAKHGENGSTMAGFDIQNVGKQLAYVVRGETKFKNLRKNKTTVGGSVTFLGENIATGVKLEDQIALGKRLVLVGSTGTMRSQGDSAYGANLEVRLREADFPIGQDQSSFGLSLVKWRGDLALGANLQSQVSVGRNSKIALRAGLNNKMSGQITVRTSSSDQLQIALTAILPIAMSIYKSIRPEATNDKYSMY

B1: GST-SP1flex (SP1 intermembrane space and cytosolic domains joined by a flexible linker, N-terminal GST tag) (enzyme, part only; not given: N-terminal GST tag)
chain, part: RSSGRDAEVLETVTRVNQLKELAQLLELDSKILPFIVAVSGRVGSETPIKCEHSGIRGVIVEETAEQHFLKHNETGSWVQDSALMLSMSKEVPWFLDDGTSRVHVMGARGATGFALTVGSEVFEESGRSLVRGTLDYLQGLKMLGVKRIERVLPTGIPLTIVGEAVKDDIGEFRIQKPDRGPFYVSSKSLDQLISNLGKWSRLYKIDSVLERRRRRQLQKRVLDAAAKRAELESEGSNGTRESISDSTKKEDAVPDLCVICLEQEYNAVFVPCGHMCCCTACSSHLTSCPLCRRRIDLAVKTYRH
Question: For B1, which “In vitro ubiquitination (high-molecular-weight species of radiolabelled substrate)” value (shortened to “In vitro ubiquitination”) (atToc159 (At4g02510)) is on record?
Answer: Its value is “for each TOC substrate the extent of ubiquitination was enhanced in the presence of SP1”.

Question: And the “In vitro ubiquitination” value (atToc75-III (At3g46740))?
Answer: Its value is “for each TOC substrate the extent of ubiquitination was enhanced in the presence of SP1”.

Question: And the “In vitro ubiquitination” value (atToc33 (At1g02280))?
Answer: The value was “for each TOC substrate the extent of ubiquitination was enhanced in the presence of SP1”.
